# Several values for one entry are separate records, joined by “and”; a condition that tells them apart may be missing. Equal values may be shown once.
# Experiments:
# [1] = molecular target: prostate specific membrane antigen (PSMA), full-length, on the cell surface (human) (UniProt Q04609); experiment: fraction of radiolabel bound to cells, PSMA-3T3
# [2] = molecular target: prostate specific membrane antigen (PSMA), full-length, on the cell surface (human) (UniProt Q04609); experiment: fraction of radiolabel bound to cells, average
# [3] = molecular target: prostate specific membrane antigen (PSMA), full-length, on the cell surface (human) (UniProt Q04609); experiment: cell-based or functional assay
# prostate specific membrane antigen (PSMA), full-length, on the cell surface (human), sequence (Q04609 whole entry): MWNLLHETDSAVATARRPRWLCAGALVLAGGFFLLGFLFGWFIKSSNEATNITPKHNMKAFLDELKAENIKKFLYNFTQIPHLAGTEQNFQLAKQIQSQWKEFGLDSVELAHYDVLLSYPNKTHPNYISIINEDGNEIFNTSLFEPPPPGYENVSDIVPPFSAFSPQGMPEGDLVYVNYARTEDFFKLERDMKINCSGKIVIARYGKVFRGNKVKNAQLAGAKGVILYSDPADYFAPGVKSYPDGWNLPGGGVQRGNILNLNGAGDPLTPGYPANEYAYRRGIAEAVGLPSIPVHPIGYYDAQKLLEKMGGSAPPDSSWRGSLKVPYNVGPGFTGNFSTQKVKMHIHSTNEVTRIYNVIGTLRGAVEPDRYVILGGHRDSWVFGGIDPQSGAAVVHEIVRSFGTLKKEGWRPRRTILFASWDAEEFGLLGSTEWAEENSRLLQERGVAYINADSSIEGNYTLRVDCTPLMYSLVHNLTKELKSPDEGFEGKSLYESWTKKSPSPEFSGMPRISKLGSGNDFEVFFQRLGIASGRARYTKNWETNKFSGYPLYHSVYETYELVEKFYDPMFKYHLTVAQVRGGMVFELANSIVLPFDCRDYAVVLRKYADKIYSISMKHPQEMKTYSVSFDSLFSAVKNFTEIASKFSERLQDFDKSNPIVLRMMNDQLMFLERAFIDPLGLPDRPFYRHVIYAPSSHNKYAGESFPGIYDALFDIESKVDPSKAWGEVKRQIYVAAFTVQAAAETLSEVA
Immunoreactivity (%) [1],Immunoreactivity (%) [2] [%],Substance,"LD50, immunotoxin cytotoxicity (Mab-Zap saporin) on C4-2 cells [3] [pM]","LD50, immunotoxin cytotoxicity (Mab-Zap saporin) on PSMA-3T3 cells [3] [pM]"
58.5% and 54.9%,56.7,111In radiolabeled mJ591 (antibody),–,–
–,–,mAb J591 (antibody),88.2,89

# From patent US20040033229A1
